Experimental findings from patent publication EP2468767B1 (dated 2007) are described below.

This data set deals with the molecule itself. Briefly: gel filtration on Superdex 200 HR.

B1: IR485 (human insulin receptor residues 1-485 with enterokinase site and c-myc tag) (receptor)
chain: HLYPGEVCPGMDIRNNLTRLHELENCSVIEGHLQILLMFKTRPEDFRDLSFPKLIMITDYLLLFRVYGLESLKDLFPNLTVIRGSRLFFNYALVIFEMVHLKELGLYNLMNITRGSVRIEKNNELCYLATIDWSRILDSVEDNYIVLNKDDNEECGDICPGTAKGKTNCPATVINGQFVERCWTHSHCQKVCPTICKSHGCTAEGLCCHSECLGNCSQPDDPTKCVACRNFYLDGRCVETCPPPYYHFQDWRCVNFSFCQDLHHKCKNSRRQGCHQYVIHNNKCIPECPSGYTMNSSNLLCTPCLGPCPKVCHLLEGEKTIDSVTSAQELRGCTVINGSLIINIRGGNNLAAELEANLGLIEEISGYLKIRRSYALVSLSFFRKLRLIRGETLEIGNYSFYALDNQNLRQLWDWSKHNLTITQGKLFFHYNPKLCLSEIHKMEEVSGTKGRQERNDIALKTNGDQASCENELLKFSYIRTSFDKISDDDDKEQKLISEEDLN
As to B1, the binding result is on record as “binds”.
